This data set concerns the molecule itself. Description: crystal structure; hanging drop, room temperature; 50 mM sodium citrate pH 5.3, 1.7 M (NH4)2SO4 for PCNA-D17K; 50 mM sodium citrate pH 5.6, 2 M (NH4)2SO4 for PCNA-D21K; molecular replacement with wild-type PCNA (PDB 4YHR).

B1: PCNA-D17K (recombinant, crystallised) (natural protein, S. cerevisiae)
chain: MLEAKFEEASLFKRIIKGFKDCVQLVNFQCKEDGIIAQAVDDSRVLLVSLEIGVEAFQEYRCDHPVTLGMDLTSLSKILRCGNNTDTLTLIADNTPDSIILLFEDTKKDRIAEYSLKLMDIDADFLKIEELQYDSTLSLPSSEFSKIVRDLSQLSDSINIMITKETIKFVADGDIGSGSVIIKPFVDMEHPETSIKLEMDQPVDLTFGAKYLLDIIKGSSLSDRVGIRLSSEAPALFQFDLKSGFLQFFLAPKFNDEE
notes: PCNA (POL30), S. cerevisiae, with D17K; modified pET-28 vector with an N-terminal 6-His tag and a PreScission Protease cleavage site; also called PCNA mutant D17K
B1: the binding result is “binds”.

B2: PCNA-D21K (recombinant, crystallised) (natural protein, S. cerevisiae)
chain: MLEAKFEEASLFKRIIDGFKKCVQLVNFQCKEDGIIAQAVDDSRVLLVSLEIGVEAFQEYRCDHPVTLGMDLTSLSKILRCGNNTDTLTLIADNTPDSIILLFEDTKKDRIAEYSLKLMDIDADFLKIEELQYDSTLSLPSSEFSKIVRDLSQLSDSINIMITKETIKFVADGDIGSGSVIIKPFVDMEHPETSIKLEMDQPVDLTFGAKYLLDIIKGSSLSDRVGIRLSSEAPALFQFDLKSGFLQFFLAPKFNDEE
notes: PCNA (POL30), S. cerevisiae, with D21K; modified pET-28 vector with an N-terminal 6-His tag and a PreScission Protease cleavage site; also called PCNA mutant D21K
On to B2, for which the binding result was “binds”.

The record behind these values is publication PMC6648347, “Effective mismatch repair depends on timely control of PCNA retention on DNA by the Elg1 complex” (Nucleic Acids Research, 2019).
